Laboratory results taken from patent US20260266848A1, “COMPOSITIONS AND METHODS FOR DIAGNOSING AND TREATING DYSTONIA” (Duke University, priority 2023, published 2026).

B1: Lmna (protein, UniProt P48678 1-662, looked up)
Prelamin-A/C: METPSQRRATRSGAQASSTPLSPTRITRLQEKEDLQELNDRLAVYIDRVRSLETENAGLRLRITESEEVVSREVSGIKAAYEAELGDARKTLDSVAKERARLQLELSKVREEFKELKARNTKKEGDLLAAQARLKDLEALLNSKEAALSTALSEKRTLEGELHDLRGQVAKLEAALGEAKKQLQDEMLRRVDAENRLQTLKEELDFQKNIYSEELRETKRRHETRLVEIDNGKQREFESRLADALQELRAQHEDQVEQYKKELEKTYSAKLDNARQSAERNSNLVGAAHEELQQSRIRIDSLSAQLSQLQKQLAAKEAKLRDLEDSLARERDTSRRLLAEKEREMAEMRARMQQQLDEYQELLDIKLALDMEIHAYRKLLEGEEERLRLSPSPTSQRSRGRASSHSSQSQGGGSVTKKRKLESSESRSSFSQHARTSGRVAVEEVDEEGKFVRLRNKSNEDQSMGNWQIRRQNGDDPLMTYRFPPKFTLKAGQVVTIWASGAGATHSPPTDLVWKAQNTWGCGSSLRTALINSTGEEVAMRKLVRSLTMVEDNEDDDEDGEELLHHHRGSHCSGSGDPAEYNLRSRTVLCGTCGQPADKAAGGAGAQVGGSISSGSSASSVTVTRSFRSVGGSGGGSFGDNLVTRSYLLGNSSPRSQSSQNC
B2: Cd276 (protein, UniProt Q8VE98 29-316, looked up)
CD276 antigen: VEVQVSEDPVVALVDTDATLRCSFSPEPGFSLAQLNLIWQLTDTKQLVHSFTEGRDQGSAYSNRTALFPDLLVQGNASLRLQRVRVTDEGSYTCFVSIQDFDSAAVSLQVAAPYSKPSMTLEPNKDLRPGNMVTITCSSYQGYPEAEVFWKDGQGVPLTGNVTTSQMANERGLFDVHSVLRVVLGANGTYSCLVRNPVLQQDAHGSVTITGQPLTFPPEALWVTVGLSVCLVVLLVALAFVCWRKIKQSCEEENAGAEDQDGDGEGSKTALRPLKPSENKEDDGQEIA
B3: Mvd (protein, UniProt P53602 2-400, looked up)
Diphosphomevalonate …: ASEKPLAAVTCTAPVNIAVIKYWGKRDEELVLPINSSLSVTLHQDQLKTTTTAVISKDFTEDRIWLNGREEDVGQPRLQACLREIRCLARKRRNSRDGDPLPSSLSCKVHVASVNNFPTAAGLASSAAGYACLAYTLARVYGVESDLSEVARRGSGSACRSLYGGFVEWQMGEQADGKDSIARQVAPESHWPELRVLILVVSAEKKLTGSTVGMRASVETSPLLRFRAESVVPARMAEMARCIRERDFPSFAQLTMKDSNQFHATCLDTFPPISYLNAISWRIIHLVHRFNAHHGDTKVAYTFDAGPNAVIFTLDDTVAEFVAAVWHGFPPGSNGDTFLKGLQVRPAPLSAELQAALAMEPTPGGVKYIIVTQVGPGPQILDDPCAHLLGPDGLPKPAA
B4: Dhx15 (protein, UniProt O35286 1-795, looked up)
ATP-dependent RNA helicase …: MSKRHRLDLGEDYPSGKKRAGTDGKDRERDRDREDRSKDRDRERDRGDREREREKEKEKELRASTNAMLISAGLPPLKASHSAHSTHSAHSTHSTHSAHSTHTGHTGHTSLPQCINPFTNLPHTPRYYDILKKRLQLPVWEYKDRFTDILVRHQSFVLVGETGSGKTTQIPQWCVEYMRSLPGPKRGVACTQPRRVAAMSVAQRVADEMDVMLGQEVGYSIRFEDCSSAKTILKYMTDGMLLREAMNDPLLERYGVIILDEAHERTLATDILMGVLKEVVRQRSDLKVIVMSATLDAGKFQIYFDNCPLLTIPGRTHPVEIFYTPEPERDYLEAAIRTVIQIHMCEEEEGDLLLFLTGQEEIDEACKRIKREVDDLGPEVGDIKIIPLYSTLPPQQQQRIFEPPPPKKQNGAIGRKVVVSTNIAETSLTIDGVVFVIDPGFAKQKVYNPRIRVESLLVTAISKASAQQRAGRAGRTRPGKCFRLYTEKAYKTEMQDNTYPEILRSNLGSVVLQLKKLGIDDLVHFDFMDPPAPETLMRALELLNYLAALNDDGDLTELGSMMAEFPLDPQLAKMVIASCDYNCSNEVLSITAMLSVPQCFVRPTEAKKAADEAKMRFAHIDGDHLTLLNVYHAFKQNHESVQWCYDNFINYRSLMSADNVRQQLSRIMDRFNLPRRSTDFTSRDYYINIRKALVTGYFMQVAHLERTGHYLTVKDNQVVQLHPSTVLDHKPEWVLYNEFVLTTKNYIRTCTDIKPEWLVKIAPQYYDMSNFPQCEAKRQLDRIIAKLQSKEYSQY
B5: Ap3d1 (protein, UniProt O54774 2-1199, looked up)
AP-3 complex subunit delta-1: ALKMVKGSIDRMFDKNLQDLVRGIRNHKEDEAKYISQCIDEIKQELKQDNIAVKANAVCKLTYLQMLGYDISWAAFNIIEVMSASKFTFKRVGYLAASQCFHEGTDVIMLTTNQIRKDLSSPSQYDTGVALTGLSCFVTPDLARDLANDIMTLMSHTKPYIRKKAVLIMYKVFLKYPESLRPAFPRLKEKLEDPDPGVQSAAVNVICELARRNPKNYLSLAPLFFKLMTSSTNNWVLIKIIKLFGALTPLEPRLGKKLIEPLTNLIHSTSAMSLLYECVNTVIAVLISLSSGMPNHSASIQLCVQKLRILIEDSDQNLKYLGLLAMSKILKTHPKSVQSHKDLILQCLDDKDESIRLRALDLLYGMVSKKNLMEIVKKLMTHVDKAEGTTYRDELLTKIIDICSQSNYQHITNFEWYISILVELTRLEGTRHGHLIAAQMLDVAIRVKAIRKFAVSQMSSLLDSAHLVASSTQRNGICEVLYAAAWICGEFSEHLQGPQQTLEAMLRPKVTTLPGHIQAVYVQNVVKLYASILQQKEQAADTEAAQEVTQLLVERLPQFVQSADLEVQERASCILQLVKHVQKLQAKGVPVAEEVSALFAGELNPVAPKAQKKVPVPEGLDLDAWINEPPSDSESEDEKPKAIFHEEEPRHTRRRQPEEDEEELARRREARKQEQANNPFYIKSSPSPQKRYQDAPGVEHIPVVQIDLSVPLKVPGMPMSDQYVKLEEQRRHRQRLEKDKKRKKKEKGKRRHSSLPTESDEDIAPAQRVDIITEEMPENALPSDEDDKDPNDPYRALDIDLDKPLADSEKLPVQKHRNAEAVKSPEKEGVLGVEKKSKKPKKKEKKTKEREREKKDKKGEDLDFWLSTTPPPAAAPIPAPSTEELAASTITSPKDECEVLKGEEEDHVDHDQERKSSRHKKKKHRKEKEKEERPRDKKKAKKKQVAPLENGAAAEEEEEPIPPMSSYCLLAESPYIKVTYDIQASLQKDSQVTVSIILENQSSSFLKNMELNVLDSLNTKMTRPEGSSVHDGVPVPFQLPPGVSNEAQFVFTIQSIVMAQKLKGTLSFIAKDDEGATHEKLDFRLHFSCSSYLITTPCYSDAFAKLLESGDLSMNSIKVDGISMSFQNLLAKICFYHHFSVVERVDSCASMYSRSIQGHHVCLLVKKGESSVSVDGKCSDATLLSSLLEEMKTTLAQC
B6: AP1B1 (protein, UniProt Q10567 1-949, looked up)
AP-1 complex subunit beta-1: MTDSKYFTTTKKGEIFELKAELNSDKKEKKKEAVKKVIASMTVGKDVSALFPDVVNCMQTDNLELKKLVYLYLMNYAKSQPDMAIMAVNTFVKDCEDPNPLIRALAVRTMGCIRVDKITEYLCEPLRKCLKDEDPYVRKTAAVCVAKLHDINAQLVEDQGFLDTLKDLISDSNPMVVANAVAALSEIAESHPSSNLLDLNPQSINKLLTALNECTEWGQIFILDCLANYMPKDDREAQSICERVTPRLSHANSAVVLSAVKVLMKFMEMLSKDLDYYGTLLKKLAPPLVTLLSAEPELQYVALRNINLIVQKRPEILKHEMKVFFVKYNDPIYVKLEKLDIMIRLASQANIAQVLAELKEYATEVDVDFVRKAVRAIGRCAIKVEQSAERCVSTLLDLIQTKVNYVVQEAIVVIKDIFRKYPNKYESVIATLCENLDSLDEPEARAAMIWIVGEYAERIDNADELLESFLEGFHDESTQVQLQLLTAIVKLFLKKPTETQELVQQVLSLATQDSDNPDLRDRGYIYWRLLSTDPVAAKEVVLAEKPLISEETDLIEPTLLDELICYIGTLASVYHKPPSAFVEGGRGVVHKSLPPRTASSESAESPETAPTGAPPGEQPDVIPAQGDLLGDLLNLDLGPPVSGPPLATSSVQMGAVDLLGGGLDSLMGDEPEGIGGTNFVAPPTAAVPANLGAPIGSGLSDLFDLTSGVGTLSGSYVAPKAVWLPAMKAKGLEISGTFTRQVGSISMDLQLTNKALQVMTDFAIQFNRNSFGLAPAAPLQVHAPLSPNQTVEISLPLSTVGSVMKMEPLNNLQVAVKNNIDVFYFSTLYPLHILFVEDGKMDRQMFLATWKDIPNENEAQFQIRDCPLNAEAASSKLQSSNIFTVAKRNVEGQDMLYQSLKLTNGIWVLAELRIQPGNPSCTDLELSLKCRAPEVSQHVYQAYETILKN

Columns and labels:
DYT-TOR1A MEF EVs = assay: Quantitative LC-MS/MS proteomics of EVs from drug-treated DYT-TOR1A MEF cultures (ritonavir, salubrinal); format: cell-based, mouse; parameters: key to RTV Corrective Direction / RTV Corrective Direction, Grwd1 / RTV Corrective Direction, Srrm2 / RTV Corrective Direction, Rbm17 / RTV Corrective Direction, Dcaf8 / RTV Corrective Direction, Edil3 / RTV Corrective Direction, Timp3 / RTV Corrective Direction, Heatr3 / RTV Corrective Direction, Brd4 / RTV Corrective Direction, P3h4 / RTV Corrective Direction, Pacsin3 / RTV Corrective Direction, Naa50 / RTV Corrective Direction, Lpar6 / RTV Corrective Direction, Ndrg1 / RTV Corrective Direction, Kntc1 / RTV Corrective Direction, Cdk11b / RTV Corrective Direction, Sumo1 / RTV Corrective Direction, Lsm4 / RTV Corrective Direction, Hmga2 / RTV Corrective Direction, Cstf1 / RTV Corrective Direction, Tes / RTV Corrective Direction, Sbno1 / RTV Corrective Direction, Unc119b / RTV Corrective Direction, Cfdp1 / RTV Corrective Direction, Sec61b: YES = protein abundance effect opposite to DYT/WT; settings: EV protein abundance; for RTV Corrective Direction: DYT + RTV (ritonavir) vs DYT, direction compared with DYT/WT; for DYT + RTV/DYT Cohen's d: ritonavir (RTV)-treated DYT vs DYT
WT MEF EVs = assay: Quantitative LC-MS/MS proteomics of EVs from ISRIB-treated WT MEF cultures; format: cell-based, mouse; parameters: key to ISRIB and DYT Parallel Direction / ISRIB and DYT Parallel Direction, Ctdsp1 / ISRIB and DYT Parallel Direction, Pcdh19 / ISRIB and DYT Parallel Direction, Tspan7 / ISRIB and DYT Parallel Direction, Myo1e / ISRIB and DYT Parallel Direction, Plpp3 / ISRIB and DYT Parallel Direction, Sh3bp4 / ISRIB and DYT Parallel Direction, Dnajc7 / ISRIB and DYT Parallel Direction, Drg1 / ISRIB and DYT Parallel Direction, Maea: YES = protein abundance effect similar to DYT/WT; settings: EV protein abundance; for WT + ISRIB/WT Cohen's d: ISRIB-treated WT vs WT; for ISRIB and DYT Parallel Direction: WT + ISRIB vs WT, direction compared with DYT/WT
[1] = system: DYT1 patient plasma derived EVs; assay: Plasma-derived EV proteomics (ExoQuick ULTRA, DIA LC/MS/MS), DYT1 vs Healthy Controls; parameters: species or system human; settings: Hs. Plasma EVs (DYT1/WT); significance of genotype difference
Description: Data was obtained for extracellular vesicles using previously acquired samples. The ExoQuick® ULTRA EV Isolation System was used to fractionate and enrich EVs from plasma. Isolated plasma EV samples were then submitted to proteomic analysis by the Duke Proteomics and Metabolomics Core Facility (DPMCF). At the DPMCF, quantitative (LC/MS/MS) was performed on 500 ng of each sample, using an EvoSep One UPLC system coupled to a Thermo Orbitrap Astral high-resolution accurate mass tandem mass spectrometer (Thermo). Briefly, the sample was eluted directly from an Evotip which was subjected to a low organic wash and then subjected to an analytical separation using a 1.7 μm EvoSep 150 um ID×15 cm endurance (EveoSep) column running an SPD30 gradient from approximately 5 to 30% acetonitrile with 0.1% formic acid with a column temperature of 50 C. Data collection on the Orbitrap Astral mass spectrometer was performed in a data-independent acquisition (DIA) mode of acquisition with a r=240,000 (@m/z 200) full MS scan from m/z 380-980 with a target AGC value of 4e5 ions. Fixed DIA, windows of 4 m/z from m/z 380 to 980 DIA MS/MS scans were acquired in the Astral with a target AGC value of 5e4 and a max fill time of 6 ms. HCD collision energy setting of 27% was used for all MS2 scans.

| Molecule | RTV Corrective Direction (DYT-TOR1A MEF EVs) | DYT + RTV/DYT Cohen's d (DYT-TOR1A MEF EVs) | WT + ISRIB/WT Cohen's d (WT MEF EVs) | ISRIB and DYT Parallel Direction (WT MEF EVs) | -LogP [1] |
| --- | --- | --- | --- | --- | --- |
| B1 | YES | 3.97 | −0.19 | YES | – |
| B2 | YES | 1.75 | −2.07 | YES | – |
| B3 | YES | 4.38 | −0.34 | YES | – |
| B4 | YES | 4.59 | −1.19 | YES | – |
| B5 | YES | 3.27 | −0.19 | YES | – |
| B6 | – | – | – | – | 2.413 |
